Molecular target: T1, Elongator complex purified from yeast cells using Elp5-TAP (S. cerevisiae (endogenous in W303 yeast …, UniProt Q06706 1-1349; P42935 1-788; Q02908 1-557; Q02884 1-456; P38874 1-309; Q04868 …)
T1 construct: Elp1, S. cerevisiae; Elp2, S. cerevisiae; Elp3 (Kat9), S. cerevisiae; Elp4, S. cerevisiae; Elp5, S. cerevisiae; Elp6, S. cerevisiae; Six-subunit complex; also called Elp3 complex; Elp1-Elp6 complex; copies: + + + + +
Assay: co-IP; in vitro: 2.5 µg recombinant PCNA incubated with different amounts of Elp3 complex (purified with Elp5-TAP) in TBS with 0.01% NP-40 at 4°C for 2 hrs; precipitated with polyclonal anti-PCNA antibodies and Protein G Sepharose; Western blot for PCNA and CBP; pre-bleed sera as negative control
Settings: both partners purified

B1: recombinant PCNA (natural protein, S. cerevisiae, UniProt P15873 1-258, looked up)
chain: MLEAKFEEASLFKRIIDGFKDCVQLVNFQCKEDGIIAQAVDDSRVLLVSLEIGVEAFQEYRCDHPVTLGMDLTSLSKILRCGNNTDTLTLIADNTPDSIILLFEDTKKDRIAEYSLKLMDIDADFLKIEELQYDSTLSLPSSEFSKIVRDLSQLSDSINIMITKETIKFVADGDIGSGSVIIKPFVDMEHPETSIKLEMDQPVDLTFGAKYLLDIIKGSSLSDRVGIRLSSEAPALFQFDLKSGFLQFFLAPKFNDEE
notes: PCNA, encoded by POL30, S. cerevisiae; expressed from a plasmid in E. coli; No tag is named; purified by conventional chromatography; source: E. coli BL21(DE3), purified (Q-Sepharose, hydroxyapatite, Superdex 200)
B1: binds.

— PMC2757915, “The Elongator Complex Interacts with PCNA and Modulates Transcriptional Silencing and Sensitivity to DNA Damage Agents” (PLoS Genetics, 2009)
